Experimental data: the nanobody polyreactivity screen of Harvey et al. (2022)

Test: yeast display, Sf9 membrane polyspecificity reagent, FACS + sequencing; frameworks hold sequencing errors
In short: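 Using colony PCR, genes from sorted yeast display clones were amplified, then sequenced on MiSeq at 2 × 250 and filtered by CDR length. The clones had been stained with 10% biotinylated, detergent-solubilized Sf9 membrane reagent for 1 hour at 4 °C and sorted by FACS into low and high (top ~1%) gates on anti-HA and streptavidin fluorescence. Polyreactivity labels come from the gate of origin.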

Sequence	polyreactivity (PSR sort gate)
QVQLVESGGGLVQAGGSLRLSCAASGRIFVNNAMGWYRQAPGKERELVATITSGGSTYYADSVKGRFTISRDNAKNTVYLQMNSLKPEDSAVYYCAARRWYVHYFAYGYWGQGTQVTVSS	low polyreactivity
QVQLVESGGGLVQAGGSLRLSCAASGGIFGKYVMGWYRQAPGKERELVAGISRSAGITYYADSVKGRFTISRDNAKNTVYLQMNSLKPEDTAVYYCNARAWSYPSYHVGYDYWGQGTQVTVSS	high polyreactivity
QVQLVESGGGLVQAGGSLRLICAASGFTFVRYTMGWYRQAPGKERELVAVIRRGGSTYYADSVKGRFTISRDNAKNTVYLQMNSLKPEDTAVYYCNALSALAVEDGYWGQGTQVTVSS	low polyreactivity
QVQLVESGGGLVQAGGSLRLSCAASGRTFGSYAMGWYRQAPGKERELVAAITTDASTNYADSVKGRFTISRDNAKNTVYLQMNSLKPEDTAVYYCAKRKRTNYGFWGQGTQVTVSS	low polyreactivity
QVQLVESGGGLVQAGGSLRLSCAASGSTFVPYAMGWYRPAPGKERELVAGITFSGGSTYYADSVKGRFTISRDNAKNTVYLQMNSLKPEDTAVYYCAAGGWRGHYYWGQGTQVTVSS	high polyreactivity
QVQLVESGGGLVQAGGSLRLSCAASGFIFNVYAMGWYRQAPGKERELVAAISQRGGRTYYADSVKGRFTISRDNAKNTVYLQMNSLKPEDTAVYYCKLFYPKHGYWGQGTQVTVSS	high polyreactivity
QVQLQESGGGLVQAGRSLRLSCEASGSISILQSMGWYRQAPGKEGELVAGINWGATTYYADSVKVRLTTSRDYAKNTVYLEMNSLKPEETAVYYCAVPTYYTYPLLYWGPGTQVTVSS	low polyreactivity
QVQLVESGGGLVQAGGSLRLSCAASGRIFWVNAMGWYRQAPGKEREFVAAISWSGGSTYADSVKGRFTISRDNAKNTVYLQMNSLKPEDTAVYYCAADRYNGRYGYWGQGTQVTVSS	high polyreactivity
QVQLVESGGGLVQAGGSLRLSCAASGFTFWRYTMGWYRQAPGKERELVAAINWSGGRTYYADSVKGRFTISRDNAKNTVYLQMNSLKPEDTAVYYCATGYSTSVGGSQGDSWGQGTQVTVSS	high polyreactivity
QVQLVESGGGLVQAGGSLRLSCAASGRTFDSNAMGWYRQAPGKERELVAAISSGGGSTYYADSVKGRFTISRDNAKNTVYLQMNSLKPEDTAVYYCAAVYHYYRGVNYWGQGTQVTVSS	high polyreactivity
QVQLVESGGGLVQAGGSLRLSCAASGGSFYNYPMGWYRQAPGKERELVAAITYSGVRTNYADSVKGRFTISRDNAKNTVYLQMNSLKPEDTAVYYCAADGLSNVRQMDYWGQGTQVTVSS	low polyreactivity
QVQLVESVGGLVQAGGSLRLSCAASGFIFWDNAMGWYRQAPGKERELVAAISKSGTRTYYADSVKGRFTISRDNAKNTVYLQMNSLKPEDTAVYSCAAEGSGYEYYYWGQGTQVTVSS	high polyreactivity
QVHLVESGGGLVQAGGSLRLSCAASGSTFRPYAMGWYRQAPGKERELVAAITGSGGSTYYADSVKGRFTISRDNAKNTVYLQMISLKPEDTAVYYCNAVSTWRYYYWGQGTQVTVSS	high polyreactivity
QVQLVESGGGLVQAGGSLRLSCAASGRIFTIYAMGWYRQAPGKERELVATISRRGGSTYYADSVKGRFTISRDNSKNTVYLQMNSLKPEDTAVYYCAAESVITWWAYDYWGQGTQVTVSS	high polyreactivity
QVQLVDSGGGLVQAGGSLRLSCAASGFIFAHYAMGWYRPAPGKESELVAAISSRGGSTYYADSVKGRFTISRDNAKNTVYLQMNSLKPEDTAVYYCAKARHRPARGYEYWGQGTQVTVSS	high polyreactivity
QVQLVESGGGLVQAGGSLRLSCAASGSIFAYYAMGWYRQAPGKERELVAGIRISGGRTYYADSVKGRFTISRDNAKNTVYLQMNSLKPEDTAVYYCNARWRGFRTGAGDYWGQGTQVTVSS	high polyreactivity
QVQHVESGGGLGQAGGSLRLSCAASGGTFQTNAKGCYRQAPGKERELVAGIRWRGGSTYYADSVKGRFTISRDNAKNTVYLQMKSLKPEDTAVYYCAAYYWQGTYDSRRTGWRLMNYWGQGTQVTVSS	high polyreactivity
QVQLVESGGGLVQAGGSLRLSCAASGRTFTRYAMGWYRQAPGKERELVAAISWSGGSTYYADSVKGRFTISRDNAKNSVYLQMNSLKPEDTAVYYCNAYYYYPEFNYWGLGTQVTVSS	high polyreactivity
QVQLVESGGGLVQAGGSLRLSCAASGITFGHYAMGWYRQAPGKERELVAAINFSGGSTYYADSVKGRFTISRDNAKNTVYLQMNSLKPEDTAVYYCAAKYSRSLRYPWYNYWGQGTQVTVSS	high polyreactivity
QVQLVESGGGLVQAGGSLRLSCAASGRIFGQNAMGWYRQSPGKERELVAVITSRGTRTYYADSVKGRFTISRDNAKNTVYLQMNSLNQEDTAVYYCAADVYSDNYKTWPYDYWGQGTQVTVSS	low polyreactivity
QVQLVESGGGLVQAGGSLRLSCAASGFTISVYVMGWYRQAPGKERELVAAISSSGGSTYYADSVKGRFTISRDNAKNTVYLQMNSLKPEDTAVYYCNAAGYWSYAYYWGQGTQVTVSS	high polyreactivity
QVQLEESGGGLVQAGGSLRLSCAASGSTFGYYAMGWYRKAPGKERELVAAISRSGGSTYYADSVKGRFTISRDNAKNTVYLQMNSLKPEDTAVYYCAAKVYGAVYHYYYWGQGTQVTVSS	high polyreactivity

Sequence	polyreactivity (PSR sort gate)
QVQLVESGGGLVQAGGRLRLSCAASGIIFDTYVMGWYRQAPGKERELVAAITRSGGRTRYADSVKGRFTISRDNAKNTVYLQMNSLKPEDTAVYYCAARIPDRQDGYGYWGQGTQVTVSS	high polyreactivity
QVPLVESGVGLVQAGGSLRLSCAASGSTISYYYMGWYRQAPGKEREFVAAIRRRGSSTYYADSVKGRFTISRDNAKNTVYLQINSLKPEDTAVYYCAKRTIAGRGRQYDYWGQGTQVSVSS	high polyreactivity
QVQLVESGGGLVQAGGSLRLSCAASGRTFGFNVMGWYRQAPGKERELVAAISRSGGSTYYADSVKGRFTISRDNAKNTVYLQMNRLKPEDTAVYYCNKRYVHRYGYWGPGTQVTVSS	low polyreactivity
QVQLVESGGGLVQAGGSLRLSCAASGRIFKRYAMGWYRQAPGKERELVAAITRGGSTNYADSVKGRFTISRDNAKNSVYLQMYSLKPEYTAVYYCAATTSRPYRSRYYYWGQGTQVTVSS	high polyreactivity
QVQLVESGGGLVQAGGSLRLSCAASGITFRFYAMGWYRQAPGKERELVAVISRGGGTTYYADSVKGRFTISRDNAKNTVYLQMNSLKPADTSVYYCAADYYYVQSELGYDYWGQGTQVTVSS	high polyreactivity
QVQHVESGGGLVQAGGSLRLSCAASGRTFDRNAMGWYRQPPGKERELVAGITRSGDSTYADSVKVRFTISRDNAKNTVYLQMNSLKPVDTAVYYCNKEGTIGGTRGYWGQGTQVTVSS	low polyreactivity
QVQLVESGGGLVQAGGSLRLICAASGITTRSNAMGWYRQAPGKERDFVAAITSRGGSTYYAYSVKGRFTISRDNAKNTVYLQMNSLKPEDTAVYYCAKGKYPDKKSRHVTLYDYWGQGTQVTVSS	high polyreactivity
QVHLVESGGGLVQAGGSLRLSCAPSGRTFEQNAMGWYRQAPGKERELVASITSVGSTDYADSVKGRFTISRDNAKNTVYLQMNSLKPEDTAVYYCAKTLGSQKYDFDYWGQGTQVTVSS	low polyreactivity
QVQLVESGGGLVQAGGSLRLSCAASGRTFSYYAMGWYRQAPGKERELVAAITDSGDSTYYADSVKGRFTISRDNAKNTVYLQMNSLKPEDTAVYYCAAEIYSYYRFYWYDYWGQGTQVTVSS	high polyreactivity
QVQLVESGGGLVQAGGSLRLSCAASGRTFNSYAMGWYRQSPGKERELVADITSSGGSTYYADSVKGRFTISRDNAKNTVFLQMNSLIPEDTALYYCAADGYTRLPTYLRVNHRSLDYWGQGTQVTVSS	low polyreactivity
QDQLVESGGGLVQAGGSLRLSCASSGFTFNGYAMGWYRQAPGKERELVAAINISGGSTYYADSVKGRFTISRDNAKNTVYLQMNSLNPEDTAVYYCAARLWGKRYSYRYGYWGQGTQVTVSS	high polyreactivity
QVQLVESGGGLVQAGGSLRLSCAASGRTFGYYAMGWYRQAPGKEREFVAAISSRGGSTRYADSVKGRFTISRDNAKNTVYLQMNSLKPEDTAVYYCNKGYYRHPDESDYGGQGTQVTVSS	high polyreactivity
QVQLVESGGGLVQAGGSLRLSCAASGFTFWRYTMGWYRQAPGKERELVATIRRGTSTNYADSVKGRFTISRDNAKNTVYLQMNSLKPEDTAVYYCAADPWRYYVEYDYWGQGTQVTVSS	high polyreactivity
QVQLVDSGGGLVQAGGSLRLSCAAYGRIFGIYTMGWYRQAPGKERELVAAIRFSGSRTYYADSVKGRFTISRDNAKNTVYLQMNSLKPEDTAVYYCNADWWFYRLRNEYWGQGTQVTVSS	high polyreactivity
QVQRVETGGGLVQAGGSLRLSCAASGRTIRVYAMGWYRQPPGKETELVPAISGSGGSTYYADSVKGRFTISRDNAKNTVYLQMNSLKPEDTAVYFCYAASWTFQTTPKYDYWGQGTLVTVSS	high polyreactivity
QVQLQESGGGLVQAGGSLRLSCAASGYISYCVGMGWYRQAPGKEREFVASIAVGSNTYYADSVKGRFTISRYNAKISVYLQRNSLKPEDTAVYYCSVEDSWTYRFDYWGQGTQVTVSS	high polyreactivity
QVQLVESGRGLVQAGGSLRLSCAASGSTFWNNGMGWYRQAPGKERELVAAINWSGDSTYYADSVKGRFTISRDNAKNTVYLQMNSLKPEDTAVYYCAAGYYTYSRRSSFFVAYGYWGQGTQVTVSS	low polyreactivity
QVQLVESGGGLVQAGGSLRLSSAASGGTFDPYAMGWYRQAPGKERELVAAISDGRRTYYADSVKGRFTISRDNAKNSVYLLMNSRNTEETAVYYFDKCRLTSRICYYWWSAYHPSDYWGQGTQVSVSS	low polyreactivity
QVQLVESGGGLVQAGGSLRLSCAASGRIFNYYTMGWYRQAPGKEREFVAAISRSGGSTFYADSVKGRFTISRDNAKNTVYLQMNSLKPEDTAVYYCAARSYSRPDGGYVQLDYWGQGTQVTVSS	high polyreactivity
QVQLVESGGGLVQAGGSLRLSCAASGSIFLLYAMGWYSQAPGKVRELVAAISRSGDSTHYADSVKGRFTISRDNAKNTVYLQMNSLKPEDTAVYYCAADGYDPYGGLYDYWGQGTQVTVSS	low polyreactivity
QVQLVESGGGLVQAGGSLRLSCAASGITISYYAMGWYRQAPGKERELVAAISFSGARTYYADSVKGRFTISRDNAKNTVYLQMNSLKPEDTAVYYCNAVSGIVQRYDYWGQGTQVTVSS	high polyreactivity
